Paper PMC10849712 (bioRxiv, 2024)

What was measured:
[1] = target: native IT4VAR19 PfEMP1 (CIDRα1.1) on P. falciparum-infected erythrocytes (Plasmodium falciparum, clone IT4 …, UniProt A3R6S3, strain); assay: flow cytometry on cells
[2] = target: native IT4VAR18 PfEMP1 (CIDRα1.6) on P. falciparum-infected erythrocytes (Plasmodium falciparum, clone IT4 …, UniProt A3R6S2, strain); assay: flow cytometry on cells
[3] = target: native HB3VAR03 PfEMP1 (CIDRα1.4) on P. falciparum-infected erythrocytes (Plasmodium falciparum HB3 (HB3VAR03), UniProt A0A0L7KL67, strain); assay: flow cytometry on cells
[4] = target: T1, single CIDRα1.4 domain of HB3VAR03 PfEMP1 (crystallised with C7 Fab) (Plasmodium falciparum HB3 (HB3VAR03), strain); assay: crystal structure
T1 chain: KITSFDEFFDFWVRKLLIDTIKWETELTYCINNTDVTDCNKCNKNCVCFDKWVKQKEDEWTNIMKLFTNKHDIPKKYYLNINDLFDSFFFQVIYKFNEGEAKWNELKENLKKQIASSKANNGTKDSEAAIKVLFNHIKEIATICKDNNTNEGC

[5] = target: T2, three-domain protein of HB3VAR03 PfEMP1 (NTS-DBLα-CIDRα1.4-DBLβ) (Plasmodium falciparum HB3 (HB3VAR03), strain); assay: cryo-EM structure
T2 chain: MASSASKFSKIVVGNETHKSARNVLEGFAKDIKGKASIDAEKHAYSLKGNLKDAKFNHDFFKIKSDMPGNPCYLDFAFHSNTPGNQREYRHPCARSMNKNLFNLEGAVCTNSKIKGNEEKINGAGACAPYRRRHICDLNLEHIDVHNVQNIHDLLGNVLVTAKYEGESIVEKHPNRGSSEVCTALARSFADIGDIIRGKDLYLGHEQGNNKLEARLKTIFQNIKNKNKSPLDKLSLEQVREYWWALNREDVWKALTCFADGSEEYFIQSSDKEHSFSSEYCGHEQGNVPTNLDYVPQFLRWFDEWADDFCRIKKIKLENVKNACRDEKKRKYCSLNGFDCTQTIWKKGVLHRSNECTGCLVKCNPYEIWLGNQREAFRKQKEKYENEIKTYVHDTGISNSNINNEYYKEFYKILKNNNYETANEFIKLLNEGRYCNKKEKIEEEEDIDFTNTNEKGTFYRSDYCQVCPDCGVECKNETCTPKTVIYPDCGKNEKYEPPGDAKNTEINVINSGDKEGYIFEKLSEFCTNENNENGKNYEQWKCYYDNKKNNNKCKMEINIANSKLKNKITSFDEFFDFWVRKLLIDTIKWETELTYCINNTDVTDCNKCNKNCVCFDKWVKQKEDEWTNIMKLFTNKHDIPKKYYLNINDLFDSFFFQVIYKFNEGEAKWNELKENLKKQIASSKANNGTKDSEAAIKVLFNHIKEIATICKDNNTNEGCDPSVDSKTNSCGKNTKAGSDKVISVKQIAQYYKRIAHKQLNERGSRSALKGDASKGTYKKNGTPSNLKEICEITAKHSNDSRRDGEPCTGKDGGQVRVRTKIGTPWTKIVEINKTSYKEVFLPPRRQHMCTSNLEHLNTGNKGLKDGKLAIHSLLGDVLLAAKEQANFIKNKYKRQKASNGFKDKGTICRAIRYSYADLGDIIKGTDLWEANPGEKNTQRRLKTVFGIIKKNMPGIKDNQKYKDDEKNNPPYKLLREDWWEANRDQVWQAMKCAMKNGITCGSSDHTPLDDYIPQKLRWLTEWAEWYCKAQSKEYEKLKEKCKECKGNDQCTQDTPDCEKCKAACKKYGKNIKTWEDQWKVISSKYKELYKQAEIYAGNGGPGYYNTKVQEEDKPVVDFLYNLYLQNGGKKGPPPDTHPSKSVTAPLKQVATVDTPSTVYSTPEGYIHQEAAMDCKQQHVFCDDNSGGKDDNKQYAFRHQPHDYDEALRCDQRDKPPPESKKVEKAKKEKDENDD

[6] = target: T3, three-domain protein of IT4VAR22 PfEMP1 (NTSA-DBLα-CIDRα1.7-DBLβ) (Plasmodium falciparum IT4 (IT4VAR22), strain); assay: cryo-EM structure
T3 chain: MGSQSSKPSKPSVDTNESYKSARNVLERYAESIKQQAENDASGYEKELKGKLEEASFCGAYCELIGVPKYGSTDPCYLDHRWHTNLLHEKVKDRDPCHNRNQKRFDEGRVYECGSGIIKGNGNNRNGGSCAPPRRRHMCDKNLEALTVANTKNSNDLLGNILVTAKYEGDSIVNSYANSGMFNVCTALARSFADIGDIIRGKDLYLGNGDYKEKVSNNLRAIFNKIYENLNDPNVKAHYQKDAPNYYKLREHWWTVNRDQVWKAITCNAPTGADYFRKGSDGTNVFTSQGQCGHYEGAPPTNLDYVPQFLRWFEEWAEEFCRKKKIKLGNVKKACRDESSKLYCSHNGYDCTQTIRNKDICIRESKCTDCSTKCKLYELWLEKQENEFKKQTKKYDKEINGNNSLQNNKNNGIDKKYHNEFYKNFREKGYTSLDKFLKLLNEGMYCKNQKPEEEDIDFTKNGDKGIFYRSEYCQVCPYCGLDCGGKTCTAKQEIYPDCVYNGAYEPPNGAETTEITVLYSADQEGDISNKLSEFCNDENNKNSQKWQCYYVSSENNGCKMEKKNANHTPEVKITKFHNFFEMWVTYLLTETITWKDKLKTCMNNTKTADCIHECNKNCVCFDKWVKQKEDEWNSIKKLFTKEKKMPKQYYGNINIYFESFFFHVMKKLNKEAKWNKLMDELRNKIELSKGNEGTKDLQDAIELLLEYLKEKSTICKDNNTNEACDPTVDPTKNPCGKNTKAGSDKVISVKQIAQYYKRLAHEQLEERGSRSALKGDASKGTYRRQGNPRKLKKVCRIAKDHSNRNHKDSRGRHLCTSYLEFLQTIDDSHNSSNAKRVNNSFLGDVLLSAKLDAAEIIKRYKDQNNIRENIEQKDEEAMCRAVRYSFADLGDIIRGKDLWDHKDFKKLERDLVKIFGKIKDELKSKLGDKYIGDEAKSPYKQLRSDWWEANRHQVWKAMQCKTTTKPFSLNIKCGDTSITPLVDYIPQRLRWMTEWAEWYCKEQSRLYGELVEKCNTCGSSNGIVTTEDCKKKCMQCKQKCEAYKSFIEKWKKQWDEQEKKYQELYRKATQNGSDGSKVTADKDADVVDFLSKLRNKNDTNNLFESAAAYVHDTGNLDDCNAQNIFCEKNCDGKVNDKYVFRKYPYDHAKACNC

B1: mAb C7, recombinant IgG1 (antibody, V domains shown)
VH: EVQLVESGGGLAQPGGSLRLSCAASGFTFRDHGMTWVRQVSGKGLEWLSYITAGSKMSYYSDSVRGRFTISRDNAKNSLYLQMNGLTDEDSAIYYCVKGGGNCPSDTCYPSGYFGLDVWGQGTTVTVSS
VL: QSELTQPPSMSVSPGQTAMITCSMNKYSYISWYQQRPGQSPALVIYQDTRRPSGIPERFSGSNSENTAILTITGTRDLDEADYFCQGWDSNVKAVLFGGGTKLTVL
- binding result [1]: no binding (tested: 100 μg/mL)
- binding result [2]: binds
- binding result [3]: binds

B2: C7 Fab (Fab, V domains shown)
VH: EVQLVESGGGLAQPGGSLRLSCAASGFTFRDHGMTWVRQVSGKGLEWLSYITAGSKMSYYSDSVRGRFTISRDNAKNSLYLQMNGLTDEDSAIYYCVKGGGNCPSDTCYPSGYFGLDVWGQGTTVTVSS
VL: QSELTQPPSMSVSPGQTAMITCSMNKYSYISWYQQRPGQSPALVIYQDTRRPSGIPERFSGSNSENTAILTITGTRDLDEADYFCQGWDSNVKAVLFGGGTKLTVL
- binding result [4]: binds
- binding result [5]: binds
- binding result [6]: binds

B3: mAb C74, recombinant IgG1 (antibody, V domains shown)
VH: EVQLVQSGGALVRPGGSLRLSCAASGFDFSDFEMNWVRQAPGKGLEWISYISKISAASFYADSVEGRFTISRDNTKNLLWLEMTSLRDEDTAVYYCARDLPGYLERVFDLWGQGTLVSVSS
VL: EIVLTQSPATLSLSPGEDATLSCRASQSVGSALAWYQHRPGQSPRLLIYDASTRATGIPARFSGSGSGTEFTLTVSSLTSEDFAVYYCQEYKNSVPPTWTFGQGTKVEIK
- binding result [1]: no binding (tested: 100 μg/mL)
- binding result [2]: binds
- binding result [3]: binds

B4: C74 Fab (Fab, V domains shown)
VH: EVQLVQSGGALVRPGGSLRLSCAASGFDFSDFEMNWVRQAPGKGLEWISYISKISAASFYADSVEGRFTISRDNTKNLLWLEMTSLRDEDTAVYYCARDLPGYLERVFDLWGQGTLVSVSS
VL: EIVLTQSPATLSLSPGEDATLSCRASQSVGSALAWYQHRPGQSPRLLIYDASTRATGIPARFSGSGSGTEFTLTVSSLTSEDFAVYYCQEYKNSVPPTWTFGQGTKVEIK
- binding result [6]: binds
